Target: T1, αvβ3 on β3-CHO cells (UniProt A0A9J7JSN3+P05106)
T1 construct: expressed in transfected cells; host or cells: CHO
T1 sequence (P05106 27-788): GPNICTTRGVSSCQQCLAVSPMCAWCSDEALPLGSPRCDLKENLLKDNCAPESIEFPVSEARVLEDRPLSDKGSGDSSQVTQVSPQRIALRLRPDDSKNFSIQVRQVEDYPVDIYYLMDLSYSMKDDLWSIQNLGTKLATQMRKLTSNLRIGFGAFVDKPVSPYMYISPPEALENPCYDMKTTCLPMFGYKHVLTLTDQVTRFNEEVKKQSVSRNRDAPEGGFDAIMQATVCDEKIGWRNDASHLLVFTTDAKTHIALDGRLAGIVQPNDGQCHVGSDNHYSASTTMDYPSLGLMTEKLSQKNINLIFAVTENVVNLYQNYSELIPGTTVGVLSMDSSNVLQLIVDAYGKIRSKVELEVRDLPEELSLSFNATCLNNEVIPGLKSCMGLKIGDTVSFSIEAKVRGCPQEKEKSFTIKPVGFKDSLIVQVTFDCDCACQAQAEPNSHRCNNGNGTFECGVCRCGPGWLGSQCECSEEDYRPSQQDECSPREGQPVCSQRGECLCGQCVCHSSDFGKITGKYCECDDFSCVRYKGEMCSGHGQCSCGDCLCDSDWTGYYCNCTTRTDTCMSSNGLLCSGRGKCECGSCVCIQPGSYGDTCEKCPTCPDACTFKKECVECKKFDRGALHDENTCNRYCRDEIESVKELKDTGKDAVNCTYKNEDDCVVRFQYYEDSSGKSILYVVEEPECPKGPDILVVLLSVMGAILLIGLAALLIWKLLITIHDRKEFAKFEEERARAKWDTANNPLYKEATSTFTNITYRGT
T1 sequence (A0A9J7JSN3 31-1043): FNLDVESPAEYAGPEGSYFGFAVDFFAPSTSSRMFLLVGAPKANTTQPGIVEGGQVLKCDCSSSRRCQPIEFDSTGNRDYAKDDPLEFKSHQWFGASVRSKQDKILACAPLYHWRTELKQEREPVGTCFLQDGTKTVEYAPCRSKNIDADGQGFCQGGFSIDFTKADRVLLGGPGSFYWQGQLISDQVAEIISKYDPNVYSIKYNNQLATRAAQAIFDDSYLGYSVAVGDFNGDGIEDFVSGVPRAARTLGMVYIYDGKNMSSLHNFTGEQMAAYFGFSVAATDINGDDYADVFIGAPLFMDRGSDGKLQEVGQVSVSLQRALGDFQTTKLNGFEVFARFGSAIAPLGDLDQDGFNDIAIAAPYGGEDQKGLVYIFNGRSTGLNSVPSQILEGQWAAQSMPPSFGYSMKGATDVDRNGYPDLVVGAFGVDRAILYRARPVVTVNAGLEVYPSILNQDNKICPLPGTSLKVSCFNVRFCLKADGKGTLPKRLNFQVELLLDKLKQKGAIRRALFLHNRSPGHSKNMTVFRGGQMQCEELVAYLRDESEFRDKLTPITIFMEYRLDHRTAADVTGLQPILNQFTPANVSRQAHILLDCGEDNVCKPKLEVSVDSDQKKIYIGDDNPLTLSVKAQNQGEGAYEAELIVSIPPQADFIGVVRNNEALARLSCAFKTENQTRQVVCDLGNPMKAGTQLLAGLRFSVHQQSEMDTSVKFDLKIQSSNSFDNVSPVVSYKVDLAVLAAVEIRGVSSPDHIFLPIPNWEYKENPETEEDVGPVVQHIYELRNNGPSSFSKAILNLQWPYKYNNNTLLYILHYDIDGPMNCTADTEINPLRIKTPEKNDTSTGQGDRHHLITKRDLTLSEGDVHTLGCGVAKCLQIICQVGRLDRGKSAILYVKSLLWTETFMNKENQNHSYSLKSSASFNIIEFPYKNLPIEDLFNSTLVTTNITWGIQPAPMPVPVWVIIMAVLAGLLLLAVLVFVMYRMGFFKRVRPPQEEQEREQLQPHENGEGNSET
Test: Binding of FITC-labeled sPLA2-IIA to αvβ3 on the cell surface (flow cytometry)
Format: cell-based, human
Conditions: 10 μg/ml, 10 mM Mg2+, room temperature, 30 min
Description: FIG. 1. sPLA2-IIA binding to integrin αvβ3. a) Cell adhesion to sPLA2-IIA in an αvβ3- and proteoglycans-dependent manner. Wells of a 96-well microtiter plate were coated with sPLA2-IIA at indicated coating concentrations. Remaining protein-binding sites were blocked with BSA. CHO cells expressing recombinant αvβ3 (β3-CHO), mock-transfected CHO cells, proteoglycans-deficient CHO cell variant (pgs745), expressing recombinant αvβ3 (β3-745), and mock-transfected pgs745 cells (10^5 cells per well in 100 μl Tyrodes-HEPES with 1 mM MgCl2) were added to the wells. After incubating for 1 h at 37° C., unbound cells were removed by gentle rinsing and bound cells were quantified using endogenous phosphatase activity (Prater, C. A. et al., J. Cell Biol., 112:1031-1040 (1991)). Data is shown as means+/−SEM of triplicate experiments. b) Effect of anti-(33 mAb 7E3 on adhesion of β3-CHO cells to immobilized sPLA2-IIA. […] Bound FITC (FL1) and PE (FL2) were quantified in flow cytometry. […] Bound αvβ3 was detected using peroxidase-conjugated anti-6His antibody. Bound peroxidase activity was measured. […]
Binding of FITC-labeled sPLA2-IIA to integrins on the cell surface sPLA2-IIA was labeled with FITC using Fluorescein labeling kit (Pierce) according to the manufacturer's instructions. […] Bound FITC (FL1) and PE (FL2) were quantified in flow cytometry.

binding to cells expressing high-level αvβ3 vs little αvβ3: much higher levels
B1: FITC-sPLA2-IIA: sPLA2-IIA labeled with FITC using Fluorescein labeling kit (conjugate)
chain: NLVNFHRMIKLTTGKEAALSYGFYGCHCGVGGRGSPKDATDRCCVTHDCCYKRLEKRGCGTKFLSYKFSNSGSRITCAKQDSCRSQLCECDKAAATCFARNKTTYNKKYQYYSNKHCRGSTPRC
modifications: left off: small tags and cut ends
notes: sPLA2-IIA labeled with FITC using Fluorescein labeling kit

— US20090092595A1, “Suppression of sPLA2-integrin binding for treating an inflammatory condition” (REGENTS OF THE UNIVERSITY OF CALIFORNIA, priority 2007, published 2009)
